Assay [1] addresses T1, extracellular domain of human BCMA (human, UniProt Q02223 1-54).
T1 construct: amine-linked to Octet AR2G tips; also called hsBCMA; BCMA (human)
T1 sequence: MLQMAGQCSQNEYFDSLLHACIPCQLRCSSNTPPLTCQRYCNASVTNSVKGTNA
Kind of assay: Octet BLI; Fab 200 nM.

For assay [2], the target named is T2, extracellular domain of rhesus monkey BCMA (rhesus monkey, UniProt F7FFA0 1-53).
T2 construct: extracellular domain; also called RhBCMA
Nature of the assay: Octet BLI; Fab 200 nM. A general note: Biolayer interferometry detects binding as a change in optical thickness at a sensor tip.

The record followed here is patent publication US20240327535A1 (EISAI R AND D MANAGEMENT, published 2024).

What is called Kd is the constant that tells how readily two partners part at equilibrium.

T2 sequence (F7FFA0 entry or part of it): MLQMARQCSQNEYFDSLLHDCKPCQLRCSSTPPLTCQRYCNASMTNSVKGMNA

B1: AB200-(2Vk30)_R2-VH-v23 (Fab, V domains shown)
VH: QVQLVQSGAEVKKPGSSVKVSCKASGGTFSNYWIHWVRQAPGQGLEWMGGTYRSHSDTYYNQKYKSRVTITADKSTSTAYMELSSLRSEDTAVYYCARGAIFHGYDVIDNWGQGTLVTVSS
VL: DIQMTQSPSSLSASVGDRVTITCRASQSISSYLNWYQQKPGKAPKLLIYATSNLQIGVPSRFSGSGSGTDFTLTISSLQPEDFATYYCQQYRRIPWTFGQGTKLEIKR
B1: the values for the Kd in assay [1] and in assay [2] were 6.89 nM and 25.9 nM, respectively.

B2: AB200-(2Vk30)_R2-VH-v31 (Fab, V domains shown)
VH: QVQLVQSGAEVKKPGSSVKVSCKASGGTFSNYWIHWVRQAPGQGLEWMGATYRSQSDTNYNQKFKSRVTITADKSTSTAYMELSSLRSEDTAVYYCARGAVYHGYDVIDNWGQGTLVTVSS
VL: DIQMTQSPSSLSASVGDRVTITCRASQSISSYLNWYQQKPGKAPKLLIYATSNLQIGVPSRFSGSGSGTDFTLTISSLQPEDFATYYCQQYRRIPWTFGQGTKLEIKR
For B2, the results for the equilibrium dissociation constant (Kd) in assay [1] and in assay [2] were 12.9 nM and 38.4 nM, respectively.

B3: AB200-(2Vk30)_R2-VH-v40 (Fab, V domains shown)
VH: QVQLVQSGAEVKKPGSSVKVSCKASGGTFTNYWIHWVRQAPGQGLEWMGATYRIHSTTYYAQKFKSRVTITADKSTSTAYMELSSLRSEDTAVYYCARGAIYHGFDVIDNWGQGTLVTVSS
VL: DIQMTQSPSSLSASVGDRVTITCRASQSISSYLNWYQQKPGKAPKLLIYATSNLQIGVPSRFSGSGSGTDFTLTISSLQPEDFATYYCQQYRRIPWTFGQGTKLEIKR
Turning to B3, the Kd in assay [1] stood at 15.5 nM; in assay [2], 32.5 nM.

B4: AB200-(2Vk30)_R2-VH-v39 (Fab, V domains shown)
VH: QVQLVQSGAEVKKPGSSVKVSCKASGGTFTNYWIHWVRQAPGQGLEWMGATYRIHSDTYYAEKFKSRVTITADKSTSTAYMELSSLRSEDTAVYYCARGAIFHGYDVIDNWGQGTLVTVSS
VL: DIQMTQSPSSLSASVGDRVTITCRASQSISSYLNWYQQKPGKAPKLLIYATSNLQIGVPSRFSGSGSGTDFTLTISSLQPEDFATYYCQQYRRIPWTFGQGTKLEIKR
As for B4, the Kd in assay [1] came out at 3 nM; in assay [2], 15.4 nM.

B5: AB200-(2Vk30)_R2-VH-v45 (Fab, V domains shown)
VH: QVQLVQSGAEVKKPGSSVKVSCKASGGTYSNYWIHWVRQAPGQGLEWMGATYRIHSTTNYNQKFKSRVTITADKSTSTAYMELSSLRSEDTAVYYCARGAIFHGYDVIDNWGQGTLVTVSS
VL: DIQMTQSPSSLSASVGDRVTITCRASQSISSYLNWYQQKPGKAPKLLIYATSNLQIGVPSRFSGSGSGTDFTLTISSLQPEDFATYYCQQYRRIPWTFGQGTKLEIKR
For the molecule B5, the Kd in assay [1] is 720 nM; in assay [2] it was 3080 nM.

B6: AB200-(2Vk30)_R2-VH-v43 (Fab, V domains shown)
VH: QVQLVQSGAEVKKPGSSVKVSCKASGGTFTNYWIHWVRQAPGQGLEWMGGTYRIHSDTYYAQKFKSRVTITADKSTSTAYMELSSLRSEDTAVYYCARGAIYHGFDVIDNWGQGTLVTVSS
VL: DIQMTQSPSSLSASVGDRVTITCRASQSISSYLNWYQQKPGKAPKLLIYATSNLQIGVPSRFSGSGSGTDFTLTISSLQPEDFATYYCQQYRRIPWTFGQGTKLEIKR
Turning to B6, the Kd is 6.82 nM in assay [1] and 25.8 nM in assay [2].

B7: AB200-(2Vk30)_R2-VH-v30 (Fab, V domains shown)
VH: QVQLVQSGAEVKKPGSSVKVSCKASGGTFSNYWIHWVRQAPGQGLEWMGATYRSHSDTNYAQKFKSRVTITADKSTSTAYMELSSLRSEDTAVYYCARGAIYHGYDVIENWGQGTLVTVSS
VL: DIQMTQSPSSLSASVGDRVTITCRASQSISSYLNWYQQKPGKAPKLLIYATSNLQIGVPSRFSGSGSGTDFTLTISSLQPEDFATYYCQQYRRIPWTFGQGTKLEIKR
On to B7, for which the Kd came out at 50.4 nM in assay [1] and 141 nM in assay [2].

B8: AB200-(2Vk30)_R2-VH-v51 (Fab, V domains shown)
VH: QVQLVQSGAEVKKPGSSVKVSCKASGGSFSNYWIHWVRQAPGQGLEWMGGTYRIQSDTYYNQKFKSRVTITADKSTSTAYMELSSLRSEDTAVYYCARGAIYHGYDVIENWGQGTLVTVSS
VL: DIQMTQSPSSLSASVGDRVTITCRASQSISSYLNWYQQKPGKAPKLLIYATSNLQIGVPSRFSGSGSGTDFTLTISSLQPEDFATYYCQQYRRIPWTFGQGTKLEIKR
Take B8: the figures for the Kd in assay [1] and in assay [2] were 20.3 nM and 68.9 nM, respectively.
